Test [1] concerns the target Gp57, purified (phage SECΦ27). Put plainly: SEC-MALS; co-purified CapRel^SJ46–Gp57 complex at 5 mg ml^−1; 50 mM HEPES pH 7.5, 500 mM KCl, 500 mM NaCl, 10 mM MgCl2, 1 mM TCEP, 0.002% mellitic acid.
Test [2] deals with Gp57 (L114P I115F), purified (phage SECΦ27). As to the kind of experiment: ITC; CapRel^SJ46 (or variant) at 150 μM in the syringe titrated into Gp57 (or variant) at 10 μM in the cell; 25 °C; 50 mM HEPES pH 7.5, 500 mM KCl, 500 mM NaCl, 150 mM imidazole, 10 mM MgCl2, 1 mM TCEP, 0.002% mellitic acid. On the technique in general: In ITC the heat of successive injections is recorded.

Test [3] deals with Gp57, purified (phage SECΦ27). Described as above.
In test [4] the target is CapRel^SJ46, purified full-length. As to the kind of experiment: ITC. As to conditions: CapRelSJ46 titrated into Gp57(L114P I115F).
Test [5] has as its target CapRel^SJ46–Flag. Put plainly: immunoprecipitation followed by mass spectrometry.

Broadly, the stoichiometry N is a count of units in the complex or per binding partner. As usually defined, the Kd is the concentration at which binding is half-saturated. The low end stands for tighter binding, the high end for weaker binding.

Bounds are passed on as bounds.

In test [1], “CapRel^SJ46(Y155A), co-purified with Gp57 (natural protein)” returned a stoichiometry N of 1.
In turn, “CapRel^SJ46, purified full-length (natural protein)” had a fold decrease in affinity against wild-type Gp57 in test [2] greater than 60 fold. The substance also registered a stoichiometry N in test [3] of 1.
Gp57, purified L114P; I115F registered a Kd in test [4] of 23.7 µM.
Consider “Gp57, major capsid protein of SECΦ27, made by wild-type phage during infection L114P”, for which the response (SC(Gp57)/SC(CapRelSJ46)) in test [5] (40 min after infection, bar = mean of 2 biological replicates, parent: est. 0.33, read off a plot) is 0.07. Besides, the response (spectral counts (SC)) worked out at 0 in test [5] (replicate1, 15 min after infection, CapRelSJ46 SC 276 (L114P mutant), 286 (WT), parent: 12); 25 in test [5] (replicate1, 40 min after infection, CapRelSJ46 SC 251 (L114P mutant), 217 (WT), parent: 64); 0 in test [5] (replicate2, 15 min after infection, CapRelSJ46 SC 145 (L114P mutant), 161 (WT), parent: 0); 6 in test [5] (replicate2, 40 min after infection, CapRelSJ46 SC 156 (L114P mutant), 138 (WT), parent: 52).

Values taken from publication PMC9712102.
